Article PMC11156904, “Nucleic acid mediated activation of a short prokaryotic Argonaute immune system”
Values joined by “and” are separate entries in the source; they are usually repeats but may differ in a detail not shown here. Identical values can stand only once. Each block holds one molecule with its values, some of them ahead of it.

Legend:
[1] = molecular target: SPARTA heterodimer (TIR-APAZ/short pAgo complex) from Crenotalea thermophila (Crenotalea thermophila); assay: cryo-EM structure; SPARTA oligomer bound to gRNA/tDNA, nominal 3.15-3.35 Å
[2] = molecular target: SPARTA heterodimer (TIR-APAZ/short pAgo complex) from Crenotalea thermophila (Crenotalea thermophila); assay: mass photometry; CrtSPARTA incubated with gRNA/tDNA (5 mM MgCl2, 55 °C, 12 hours), 100-fold diluted, in 20 mM HEPES pH 7.5, 100 mM KCl, 2 mM DTT
[3] = molecular target: T1, CrtSPARTA TIR-APAZ;CrtSPARTA short pAgo (CrtAgo) (Crenotalea thermophila;Crenotalea …, UniProt A0A1I7NFG5;A0A1I7NFD7 1-450;1-507, |); assay: cryo-EM structure; 5 mM MgCl2; Mg2+ seen in MID pocket; 4 heterodimers, one duplex each; 20 mM HEPES pH 7.5, 100 mM KCl, 1 mM DTT, 5 mM MgCl2; 1.5 mg/ml SPARTA, 16 uM gRNA 37 C 1 h, then 16 uM tDNA 55 C 12 h; settings: protein: recombinant;recombinant; tags: 6xHis-MBP removed by TEV;none stated on this chain; copies: 1;1; 21 bp; tDNA 5' overhang 23 nt and 3' overhang 1 nt; guide loaded first, then target
T1 sequence 1: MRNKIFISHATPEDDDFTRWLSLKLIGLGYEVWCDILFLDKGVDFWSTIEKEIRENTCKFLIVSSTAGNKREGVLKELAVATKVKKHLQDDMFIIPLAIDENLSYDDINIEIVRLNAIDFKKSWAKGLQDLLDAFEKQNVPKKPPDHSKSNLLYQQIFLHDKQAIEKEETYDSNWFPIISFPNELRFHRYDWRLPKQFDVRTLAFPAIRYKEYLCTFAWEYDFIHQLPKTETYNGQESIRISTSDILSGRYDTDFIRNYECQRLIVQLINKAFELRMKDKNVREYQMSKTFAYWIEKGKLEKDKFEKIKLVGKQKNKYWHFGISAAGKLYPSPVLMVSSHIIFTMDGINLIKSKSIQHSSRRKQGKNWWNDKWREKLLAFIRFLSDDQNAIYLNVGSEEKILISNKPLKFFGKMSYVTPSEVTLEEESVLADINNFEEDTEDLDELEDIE
T1 sequence 2: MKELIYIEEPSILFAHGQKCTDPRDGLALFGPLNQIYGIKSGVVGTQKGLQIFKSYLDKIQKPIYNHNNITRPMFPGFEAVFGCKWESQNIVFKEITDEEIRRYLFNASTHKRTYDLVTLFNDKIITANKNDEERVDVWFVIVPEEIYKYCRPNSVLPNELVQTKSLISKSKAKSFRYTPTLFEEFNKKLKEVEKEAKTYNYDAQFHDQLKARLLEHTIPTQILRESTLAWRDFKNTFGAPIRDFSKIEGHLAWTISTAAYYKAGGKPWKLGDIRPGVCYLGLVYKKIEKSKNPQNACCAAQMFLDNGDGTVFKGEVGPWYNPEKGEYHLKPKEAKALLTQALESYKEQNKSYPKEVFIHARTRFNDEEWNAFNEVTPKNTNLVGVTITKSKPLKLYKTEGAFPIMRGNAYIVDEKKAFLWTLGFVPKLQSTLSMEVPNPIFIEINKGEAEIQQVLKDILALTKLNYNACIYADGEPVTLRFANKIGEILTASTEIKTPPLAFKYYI

[4] = molecular target: T2, CrtSPARTA TIR-APAZ;CrtSPARTA short pAgo loop10-9 deletion (Crenotalea thermophila;Crenotalea …, UniProt A0A1I7NFG5;A0A1I7NFD7 1-450;1-507, |del322-327); assay: mass photometry; binds as single heterodimer (~134.6 kDa, expected 132.6); loses dimer formation; 20 mM HEPES pH 7.5, 100 mM KCl, 1 mM DTT, 5 mM MgCl2; 1.5 mg/ml SPARTA, 16 uM gRNA 37 C 1 h, then 16 uM tDNA 55 C 12 h; settings: protein: recombinant;recombinant; tags: 6xHis-MBP removed by TEV;none stated on this chain; copies: 1;1; 21 bp; tDNA 5' overhang 23 nt and 3' overhang 1 nt; guide loaded first, then target
T2 sequence 1: T1 sequence 1
T2 sequence 2: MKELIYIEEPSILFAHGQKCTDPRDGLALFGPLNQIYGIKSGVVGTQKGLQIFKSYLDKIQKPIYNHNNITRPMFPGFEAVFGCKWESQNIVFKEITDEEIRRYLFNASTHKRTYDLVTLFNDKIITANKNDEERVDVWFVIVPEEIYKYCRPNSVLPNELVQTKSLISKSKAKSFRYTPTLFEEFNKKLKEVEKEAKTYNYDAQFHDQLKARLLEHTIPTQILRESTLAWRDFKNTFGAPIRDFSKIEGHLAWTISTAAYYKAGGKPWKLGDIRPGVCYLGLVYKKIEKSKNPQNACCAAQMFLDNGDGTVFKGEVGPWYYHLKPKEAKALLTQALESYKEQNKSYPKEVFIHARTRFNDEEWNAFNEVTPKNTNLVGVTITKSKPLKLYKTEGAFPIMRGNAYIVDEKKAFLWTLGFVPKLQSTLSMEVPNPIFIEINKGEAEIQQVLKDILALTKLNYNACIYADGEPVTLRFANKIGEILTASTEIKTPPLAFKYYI

stoichiometry N [1]: 4
stoichiometry N [2]: 2 and 4
Molecule: SPARTA heterodimer (TIR-APAZ/short pAgo complex) from Crenotalea thermophila

B1: gRNA/tDNA duplex (DNA:RNA)
RNA: UGAGGUAGUAGGUUGUAUAGU
DNA: AAACGACGGCCAGTGCCAAGCTTACTATACAACCTACTACCTCAT
modifications: 5'-phosphate on guide RNA
binding result [3]: binds
binding result [4]: binds
